# According to patent publication US20190336574A1 (TRUSTEES OF PRINCETON UNIVERSITY, published 2019):
# B1: GST-MTDH (364-582), wild type (other)
# chain: YQWDVSRNQPYIDDEWSGLNGLSSADPNSDWNAPAEEWGNWVDEERASLLKSQEPIPDDQKVSDDDKEKGEGALPTGKSKKKKKKKKKQGEDNSTAQDTEELEKEIREDLPVNTSKTRPKQEKAFSLKTISTSDPAEVLVKNSQPIKTLPPATSTEPSVILSKSDSDKSSSQVPPILQETDKSKSNTKQNSVPPSQTKSETSWESPKQIKKKKKARRET
# notes: not shown: N-terminal GST tag with TEV site, pQlink vector
# B2: His-SND1 (16-339), SN1/2 domains, wild type (other)
# chain: VPTVQRGIIKMVLSGCAIIVRGQPRGGPPPERQINLSNIRAGNLARRAAATQPDAKDTPDEPWAFPAREFLRKKLIGKEVCFTIENKTPQGREYGMIYLGKDTNGENIAESLVAEGLATRREGMRANNPEQNRLSECEEQAKAAKKGMWSEGNGSHTIRDLKYTIENPRHFVDSHHQKPVNAIIEHVRDGSVVRALLLPDYYLVTVMLSGIKCPTFRREADGSETPEPFAAEAKFFTESRLLQRDVQIILESCHNQNILGTILHPNGNITELLLKEGFARCVDWSIAVYTRGAEKLRAAERFAKERRLRIWRDYVAPTANLDQK
# notes: also called His6-SND1 harboring the SN1/2 domains; not shown: N-terminal His tag (His6, His8 or His) with TEV site, pQlink vector
# Target: B2
# Assay: GST pull-down on glutathione resin, SDS-PAGE, Coomassie blue; normalised percentage of binding, mean±SEM of three experiments
# From the text: (§1) The proteins bound to GS4B were examined on SDS-PAGE and visualized by Coomassie blue staining. […] The bound proteins were examined as in (FIG. 22A). For both (FIG. 22A) and (FIG. 22B), experiments were repeated three times; representative results are shown. The normalized percentage of binding was averaged from three experiments; mean±SEM was shown below the data. (FIG. 22C) HEK293T cells were transfected with human HA-SND1, WT Myc-MTDH or Myc-MTDH with indicated single point mutation. Lysates were immunoprecipitated with anti-Myc antibody and immunoblotted with the indicated antibodies. (FIG. 22D) HEK293T cells were transfected with human Myc-MTDH, WT HA-SND1 or mutant HA-SND1 with indicated single point mutations or deletions. Lysates were immunoprecipitated with anti-Myc and immunoblotted with the indicated antibodies.
# (§2) GST-Mediated Pull-Down Assay: ˜20 μg of GST-MTDH (different truncation forms and site mutants) was bound to 10 μl of glutathione resin via GST tag. The resin was washed with 200 μl assay buffer (25 mM Tris, PH8.0, 150 mM NaCl, 3 mM DTT) three times to remove the excess unbound protein. […] The mixture was washed with 200 μl assay buffer twice before examined by SDS-PAGE, and visualized by Coomassie blue staining. The experiments were repeated 3 times and the ratio of SND1 associated with GST-MTDH was analyzed by ImageJ.
# Identification of MTDH and SND1 mutants deficient in binding: To gain insight into how the interface characterized above contributes to MTDH-SND1 interaction, structure-guided mutagenesis studies were performed.
row,Binder,% Maximum binding [%]
1,B1,100
2,"GST-MTDH (364-582) N395A (other, not shown: N-terminal GST tag with TEV site, pQlink vector) YQWDVSRNQPYIDDEWSGLNGLSSADPNSDWAAPAEEWGNWVDEERASLLKSQEPIPDDQKVSDDDKEKGEGALPTGKSKKKKKKKKKQGEDNSTAQDTEELEKEIREDLPVNTSKTRPKQEKAFSLKTISTSDPAEVLVKNSQPIKTLPPATSTEPSVILSKSDSDKSSSQVPPILQETDKSKSNTKQNSVPPSQTKSETSWESPKQIKKKKKARRET",84
3,"GST-MTDH (364-582) E400A (other, not shown: N-terminal GST tag with TEV site, pQlink vector) YQWDVSRNQPYIDDEWSGLNGLSSADPNSDWNAPAEAWGNWVDEERASLLKSQEPIPDDQKVSDDDKEKGEGALPTGKSKKKKKKKKKQGEDNSTAQDTEELEKEIREDLPVNTSKTRPKQEKAFSLKTISTSDPAEVLVKNSQPIKTLPPATSTEPSVILSKSDSDKSSSQVPPILQETDKSKSNTKQNSVPPSQTKSETSWESPKQIKKKKKARRET",80
4,"GST-MTDH (364-582) E400R (other, not shown: N-terminal GST tag with TEV site, pQlink vector) YQWDVSRNQPYIDDEWSGLNGLSSADPNSDWNAPAERWGNWVDEERASLLKSQEPIPDDQKVSDDDKEKGEGALPTGKSKKKKKKKKKQGEDNSTAQDTEELEKEIREDLPVNTSKTRPKQEKAFSLKTISTSDPAEVLVKNSQPIKTLPPATSTEPSVILSKSDSDKSSSQVPPILQETDKSKSNTKQNSVPPSQTKSETSWESPKQIKKKKKARRET",70
5,"GST-MTDH (364-582) D389R (other, not shown: N-terminal GST tag with TEV site, pQlink vector) YQWDVSRNQPYIDDEWSGLNGLSSARPNSDWNAPAEEWGNWVDEERASLLKSQEPIPDDQKVSDDDKEKGEGALPTGKSKKKKKKKKKQGEDNSTAQDTEELEKEIREDLPVNTSKTRPKQEKAFSLKTISTSDPAEVLVKNSQPIKTLPPATSTEPSVILSKSDSDKSSSQVPPILQETDKSKSNTKQNSVPPSQTKSETSWESPKQIKKKKKARRET",60

# Target: B1
# Assay: pull-down by GST-MTDH (364-582) on glutathione resin, SDS-PAGE, Coomassie blue; normalised percentage of binding, mean±SEM of three experiments
# From the text: as §1, §2
row,Binder,% Maximum binding [%]
1,His-SND1(16-339) P43G/R324E (protein) single chain: VPTVQRGIIKMVLSGCAIIVRGQPRGGGPPERQINLSNIRAGNLARRAAATQPDAKDTPDEPWAFPAREFLRKKLIGKEVCFTIENKTPQGREYGMIYLGKDTNGENIAESLVAEGLATRREGMRANNPEQNRLSECEEQAKAAKKGMWSEGNGSHTIRDLKYTIENPRHFVDSHHQKPVNAIIEHVRDGSVVRALLLPDYYLVTVMLSGIKCPTFRREADGSETPEPFAAEAKFFTESRLLQRDVQIILESCHNQNILGTILHPNGNITELLLKEGFARCVDWSIAVYTRGAEKLRAAERFAKERRLEIWRDYVAPTANLDQK,9
2,B2,100
3,"SND1 (16-339) R316E (negative control mutation outside the interface) (other, not shown: N-terminal His tag (His6, His8 or His) with TEV site, pQlink vector) VPTVQRGIIKMVLSGCAIIVRGQPRGGPPPERQINLSNIRAGNLARRAAATQPDAKDTPDEPWAFPAREFLRKKLIGKEVCFTIENKTPQGREYGMIYLGKDTNGENIAESLVAEGLATRREGMRANNPEQNRLSECEEQAKAAKKGMWSEGNGSHTIRDLKYTIENPRHFVDSHHQKPVNAIIEHVRDGSVVRALLLPDYYLVTVMLSGIKCPTFRREADGSETPEPFAAEAKFFTESRLLQRDVQIILESCHNQNILGTILHPNGNITELLLKEGFARCVDWSIAVYTRGAEKLRAAEEFAKERRLRIWRDYVAPTANLDQK",88
4,"SND1 (16-339) R324A (other, not shown: N-terminal His tag (His6, His8 or His) with TEV site, pQlink vector) VPTVQRGIIKMVLSGCAIIVRGQPRGGPPPERQINLSNIRAGNLARRAAATQPDAKDTPDEPWAFPAREFLRKKLIGKEVCFTIENKTPQGREYGMIYLGKDTNGENIAESLVAEGLATRREGMRANNPEQNRLSECEEQAKAAKKGMWSEGNGSHTIRDLKYTIENPRHFVDSHHQKPVNAIIEHVRDGSVVRALLLPDYYLVTVMLSGIKCPTFRREADGSETPEPFAAEAKFFTESRLLQRDVQIILESCHNQNILGTILHPNGNITELLLKEGFARCVDWSIAVYTRGAEKLRAAERFAKERRLAIWRDYVAPTANLDQK",70
5,"SND1 (16-339) R324E (other, not shown: N-terminal His tag (His6, His8 or His) with TEV site, pQlink vector) VPTVQRGIIKMVLSGCAIIVRGQPRGGPPPERQINLSNIRAGNLARRAAATQPDAKDTPDEPWAFPAREFLRKKLIGKEVCFTIENKTPQGREYGMIYLGKDTNGENIAESLVAEGLATRREGMRANNPEQNRLSECEEQAKAAKKGMWSEGNGSHTIRDLKYTIENPRHFVDSHHQKPVNAIIEHVRDGSVVRALLLPDYYLVTVMLSGIKCPTFRREADGSETPEPFAAEAKFFTESRLLQRDVQIILESCHNQNILGTILHPNGNITELLLKEGFARCVDWSIAVYTRGAEKLRAAERFAKERRLEIWRDYVAPTANLDQK",26
6,"SND1 (16-339) R255E (other, not shown: N-terminal His tag (His6, His8 or His) with TEV site, pQlink vector) VPTVQRGIIKMVLSGCAIIVRGQPRGGPPPERQINLSNIRAGNLARRAAATQPDAKDTPDEPWAFPAREFLRKKLIGKEVCFTIENKTPQGREYGMIYLGKDTNGENIAESLVAEGLATRREGMRANNPEQNRLSECEEQAKAAKKGMWSEGNGSHTIRDLKYTIENPRHFVDSHHQKPVNAIIEHVRDGSVVRALLLPDYYLVTVMLSGIKCPTFRREADGSETPEPFAAEAKFFTESELLQRDVQIILESCHNQNILGTILHPNGNITELLLKEGFARCVDWSIAVYTRGAEKLRAAERFAKERRLRIWRDYVAPTANLDQK",2
7,"SND1 (16-339) F250A (other, not shown: N-terminal His tag (His6, His8 or His) with TEV site, pQlink vector) VPTVQRGIIKMVLSGCAIIVRGQPRGGPPPERQINLSNIRAGNLARRAAATQPDAKDTPDEPWAFPAREFLRKKLIGKEVCFTIENKTPQGREYGMIYLGKDTNGENIAESLVAEGLATRREGMRANNPEQNRLSECEEQAKAAKKGMWSEGNGSHTIRDLKYTIENPRHFVDSHHQKPVNAIIEHVRDGSVVRALLLPDYYLVTVMLSGIKCPTFRREADGSETPEPFAAEAKAFTESRLLQRDVQIILESCHNQNILGTILHPNGNITELLLKEGFARCVDWSIAVYTRGAEKLRAAERFAKERRLRIWRDYVAPTANLDQK",9
8,"His-SND1(16-339) P43G (other, mutant named only on the sheet) single chain: VPTVQRGIIKMVLSGCAIIVRGQPRGGGPPERQINLSNIRAGNLARRAAATQPDAKDTPDEPWAFPAREFLRKKLIGKEVCFTIENKTPQGREYGMIYLGKDTNGENIAESLVAEGLATRREGMRANNPEQNRLSECEEQAKAAKKGMWSEGNGSHTIRDLKYTIENPRHFVDSHHQKPVNAIIEHVRDGSVVRALLLPDYYLVTVMLSGIKCPTFRREADGSETPEPFAAEAKFFTESRLLQRDVQIILESCHNQNILGTILHPNGNITELLLKEGFARCVDWSIAVYTRGAEKLRAAERFAKERRLRIWRDYVAPTANLDQK",67
9,"SND1 (16-339) Δ39-43 (deletion in the SN1 Lβ2-β3 loop) (other, also called 439-43; not shown: N-terminal His tag (His6, His8 or His) with TEV site, pQlink vector) VPTVQRGIIKMVLSGCAIIVRGQPPERQINLSNIRAGNLARRAAATQPDAKDTPDEPWAFPAREFLRKKLIGKEVCFTIENKTPQGREYGMIYLGKDTNGENIAESLVAEGLATRREGMRANNPEQNRLSECEEQAKAAKKGMWSEGNGSHTIRDLKYTIENPRHFVDSHHQKPVNAIIEHVRDGSVVRALLLPDYYLVTVMLSGIKCPTFRREADGSETPEPFAAEAKFFTESRLLQRDVQIILESCHNQNILGTILHPNGNITELLLKEGFARCVDWSIAVYTRGAEKLRAAERFAKERRLRIWRDYVAPTANLDQK",2
